Assay results reported in publication PMC3946371.

Molecular target: Vaccinia virus D4 with non-cleavable N-terminal His-tag, co-expressed with MBP-A20(1-50) (vaccinia virus (Copenhagen strain)) (UniProt P20536)
Experiment: SEC-MALS

Substance: First 50 amino acids of vaccinia virus A20, wild type, released from MBP by TEV (from UniProt P20995 1-50) (domain or fragment)
- stoichiometry N: 1
